According to patent US20260374871 (published 2026):

B1: GBD008-hS005-5 (designed binder)
chain: EVQLVESGGGLVQPGGSLRLSCAASGRTASSNAMAWFRQAPGKEREFVSAISATGGLTAYADSVKGRFTISRDNSKNTLYLQMNSLRAEDTAVYIGAVGRERWYLRHTENEYDYWGQGTLVTVSS
B2: GBD008-hS005 (designed binder)
chain: QVQLVESGGGLVEAGGSLRLSCATSGRTASSNAMAWFRQAPGKEREFVAAISATGGLTAYADSVKGRFTISRDNSKNAVYLQMNTLKPEDTAVYIGAVGRERWYLRHTENEYDYWGRGAQVTVSS

Molecular target: human CTLA-4 (human, UniProt P16410)
Test: BLI

Sequence of human CTLA-4 (P16410 36-161): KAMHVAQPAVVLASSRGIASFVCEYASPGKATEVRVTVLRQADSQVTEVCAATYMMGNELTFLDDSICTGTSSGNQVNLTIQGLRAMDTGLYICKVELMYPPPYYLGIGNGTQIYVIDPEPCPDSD

Row | Binder | Kd [nM]
1 | B1 | 0.155
2 | B2 | 0.269
